Laboratory results: US20220378931A1 (Eli Lilly, published 2022)
Changes are numbered by the printed parent chain.

B1: INS Analog 24 (other)
chain: FVSQHLCGSHLVEALHLVCGERGFHYTPKTGGGGGGGIVEQCCHSICSLEQLENYCGPGPQPGPQPGPQPGPQPGPQPGPQPGPQPGPQEVQLLESGGGLVQPGGSLRLSCAASGRYIDETAVAWFRQAPGKEREFVAGIGGGVDITYYADSVKGRFTISRDNSKNTLYLQMNSLRPEDTAVYYCAARPGRPLITSKVADLYPYWGQGTLVTVSSPP
notes: single-chain insulin B-L2-A-L1-VHH fusion; also called Ex. 24
B2: INS Analog 28 (other)
chain: B1 chain with H16R, H25F, E50Y
notes: single-chain insulin B-L2-A-L1-VHH fusion; also called Ex. 28
B3: INS Analog 29 (other)
chain: FVSQHLCGSHLVEALRLVCGERGFHYTPKTGGGGGGGIVEQCCHSICSLYQLENYCGGGGGQGGGGQGGGGQGGGGQGGGGQEVQLLESGGGLVQPGGSLRLSCAASGRYIDETAVAWFRQAPGKEREFVAGIGGGVDITYYADSVKGRFTISRDNSKNTLYLQMNSLRPEDTAVYYCAARPGRPLITSKVADLYPYWGQGTLVTVSSPP
notes: single-chain insulin B-L2-A-L1-VHH fusion; also called Ex. 29
B4: INS Analog 27 (other)
chain: B3 chain with H25F
notes: single-chain insulin B-L2-A-L1-VHH fusion; also called Ex. 27
B5: INS Analog 23 (other)
chain: B3 chain with R16H, Y50E
notes: single-chain insulin B-L2-A-L1-VHH fusion; also called Ex. 23
B6: INS Analog 18 (other)
chain: B1 chain with H16R, E50Y, Q61A, Q65A, Q69A, Q73A, Q77A, Q81A, Q85A, Q89A
notes: single-chain insulin B-L2-A-L1-VHH fusion; L1 is (PGPA)8; also called Ex. 18
B7: INS Analog 13 (other)
chain: B1 chain with Q61A, Q65A, Q69A, Q73A, Q77A, Q81A, Q85A, Q89A
notes: single-chain insulin B-L2-A-L1-VHH fusion; also called Ex. 13
B8: INS Analog 14 (other)
chain: FVSQHLCGSHLVEALRLVCGERGFFYTPKTGGGGGGGIVEQCCTSICSLYQLENYCGPGPAPGPAPGPAPGPAPGPAPGPAPGPAPGPAEVQLLESGGGLVQPGGSLRLSCAASGRYIDETAVAWFRQAPGKEREFVAGIGGGVDITYYADSVKGRFTISRDNSKNTLYLQMNSLRPEDTAVYYCAARPGRPLITSKVADLYPYWGQGTLVTVSSPP
notes: single-chain insulin B-L2-A-L1-VHH fusion; also called Ex. 14

The binders below were run against T1, cynomolgus monkey serum albumin (cynomolgus monkey, UniProt A2V9Z4 25-608) (assay: SPR (Biacore 8K), albumin immobilised, 25 C, 1:1 kinetics).
T1 construct: bought protein, amine-coupled to a CM5 chip; also called Cyno SA
Method: (§1) Immobilization of serum albumin to a Series S Sensor Chip CM5 surface is performed according to the manufacturer's instructions (Amine Coupling Kit BR-1000-50). Briefly, carboxyl groups on the sensor chip surfaces (flow cell 1 and 2) are activated by injecting 70 μL of a mixture containing 75 mg/ml EDC and 11.5 mg/ml NHS at 10 μL/min. Human, cynomolgus monkey, mouse, rat, pig, dog, cow and rabbit serum albumin are diluted in 10 mM NaOAc pH 4.0 (BR-1003-49) at 1, 1, 3, 1, 1, 1, 1 and 1 μg/mL and then injected over the activated chip surfaces (flow cell 2, […]) at 10 μL/min for 90 sec (human, mouse, rat, pig and cow serum albumin are obtained from Sigma Aldrich (St. Louis, Mo.); cynomolgus monkey serum albumin is obtained from Holzel Diagnostika (Cologne, Germany); dog serum albumin is obtained from Molecular Innovations (Novi, Mich.); and rabbit serum albumin is obtained from Fitzgerald Industries International (Acton, Mass.)). […] Excess reactive groups on the surfaces (flow cell 1 and 2) are deactivated by injecting 70 μL of 1 M ETA HCl—NaOH pH 8.5 at 10 μL/min.
(§2) 150 μL of sample is individually injecting sequentially across the immobilized serum albumins surface and then dissociates for 600 sec at 50 μL/min flow rate at 25° C. The surface is regenerated by injecting 10 mM glycine-HCl pH 1.5 (BR-1003-54) at 50 μL/min for 100 sec. The resulting sensorgrams are analyzed using Biacore 8K Insight Evaluation Software (version 2.0.15.12933) 1:1 binding kinetics or steady-state affinity model fitting to calculate the binding kinetic parameter association rate (ka), dissociation rate (kd), and equilibrium dissociation constant (KD)

Row | Kd [nM] | koff [s⁻¹] | kon [M⁻¹ s⁻¹] | Binder
1 | 5.5 | 0.00075 | 130000 | B1
2 | 4.1 | 0.00067 | 170000 | B2
3 | 4.4 | 0.00078 | 180000 | B3
4 | 4.7 | 0.00078 | 170000 | B4
5 | 6.8 | 0.00084 | 120000 | B5

What follows are binders tested against T2, pig serum albumin (pig, UniProt P08835 25-607) in the same assay as above.
T2 construct: bought protein, amine-coupled to a CM5 chip; also called Pig SA
Method: as §1, §2

Row | Kd [nM] | koff [s⁻¹] | kon [M⁻¹ s⁻¹] | Binder
6 | 100 | 0.011 | 100000 | B1
7 | 75 | 0.0084 | 110000 | B2
8 | 86 | 0.013 | 150000 | B3
9 | 90 | 0.01 | 120000 | B4
10 | 130 | 0.012 | 95000 | B5

What follows are binders tested against T3, human serum albumin (human, UniProt P02768 25-609) in the same assay as above.
T3 construct: bought protein, amine-coupled to a CM5 chip; also called Human SA; HSA
Method: as §1, §2

Row | Kd [nM] | koff [s⁻¹] | kon [M⁻¹ s⁻¹] | Binder
11 | 0.91 | 0.00012 | 140000 | B1
12 | 0.73 | 0.00012 | 160000 | B2
13 | 0.74 | 0.00013 | 180000 | B3
14 | 0.75 | 0.00013 | 170000 | B4
15 | 0.73 | 9e-05 | 120000 | B5

What follows are binders tested against T4, mouse serum albumin (mouse, UniProt P07724 25-608) in the same assay as above.
T4 construct: bought protein, amine-coupled to a CM5 chip; also called Mouse SA
Method: as §1, §2

Row | Kd [nM] | koff [s⁻¹] | kon [M⁻¹ s⁻¹] | Binder
16 | 49 | 0.0073 | 150000 | B1
17 | 37 | 0.006 | 160000 | B2
18 | 48 | 0.0087 | 180000 | B3
19 | 45 | 0.0079 | 170000 | B4
20 | 76 | 0.0093 | 120000 | B5

These binders were tested against T5, dog serum albumin (dog, UniProt P49822 25-608) in the same assay as above.
T5 construct: bought protein, amine-coupled to a CM5 chip; also called Dog SA
Method: as §1, §2

Row | Kd [nM] | koff [s⁻¹] | kon [M⁻¹ s⁻¹] | Binder
21 | 16 | 0.0024 | 150000 | B1
22 | 12 | 0.0021 | 170000 | B2
23 | 16 | 0.0032 | 190000 | B3
24 | 17 | 0.003 | 180000 | B4
25 | 23 | 0.0033 | 140000 | B5

Each binder was assayed against T6, rat serum albumin (rat, UniProt P02770 25-608) in the same assay as above.
T6 construct: bought protein, amine-coupled to a CM5 chip; also called Rat SA; RSA
Method: as §1, §2

Row | Kd [nM] | koff [s⁻¹] | kon [M⁻¹ s⁻¹] | Binder
26 | 40 | 0.0057 | 140000 | B1
27 | 26 | 0.0048 | 180000 | B2
28 | 32 | 0.0065 | 200000 | B3
29 | 32 | 0.0061 | 190000 | B4
30 | 53 | 0.0065 | 120000 | B5

The binders below were run against T7, human insulin receptor isoform A with C-terminal C9 tag (human, UniProt P06213 28-1382) (assay: 125I-insulin competition SPA, hIR-A membranes, 0.1% BSA).
T7 construct: membranes of stably transfected HEK293 cells; also called hIR-A; human IR-A
Method: (§3) The assays are performed with a SPA method using polyvinyltoluene (PVT) wheat germ agglutinin-coupled SPA beads (Perkin Elmer). Assay buffer contains 50 mM Tris-HCl, pH 7.5, 150 mM NaCl and either A) 0.1% w/v fatty-acid free BSA; B) 0.1% w/v fatty-acid free human serum albumin (HSA); C) 0.1% w/v rat serum albumin (RSA); or D) 0.001% Nonidet P-40 Substitute (NP-40, Roche Diagnostics). Ten-point concentration response curves using three-fold serial dilutions of test samples or controls are prepared in Assay Buffer using a Freedom/Evo robot (Tecan).
(§4) Percent specific inhibition (y-axis) is plotted versus the log concentration of compound (x-axis). […] Reported Ki values are shown as the geometric mean with the standard error (Delta Method Standard Error) and the number of independent replicate determinations used to calculate the geometric mean indicated by n.

Row | Ki [nM] | Binder
31 | 56.8 | B1
32 | 204 | B6
33 | 71 | B2
34 | 60.3 | B7
35 | 282 | B8
36 | 179 | B3
37 | 103 | B4
38 | 55.1 | B5

What follows are binders tested against T7, human insulin receptor isoform A with … (assay: 125I-insulin competition SPA, hIR-A membranes, 0.1% HSA).
Method: as §3, §4

Row | Ki [nM] | Binder
39 | 518 | B6
40 | 34.6 | B7
41 | 124 | B8
42 | 28.2 | B3

The binders below were run against T8, human insulin receptor isoform B with C-terminal C9 tag (human, UniProt P06213 28-1382) (assay: 125I-insulin competition SPA, hIR-B membranes, 0.001% NP-40).
T8 construct: membranes of stably transfected HEK293 cells; also called hIR-B; human IR-B
Method: as §3, §4

Row | Ki [nM] | Binder
43 | 134 | B6
44 | 39.2 | B7
45 | 234 | B8
46 | 62.5 | B3

These binders were tested against T8, human insulin receptor isoform B with … (assay: 125I-insulin competition SPA, hIR-B membranes, 0.1% BSA).
Method: as §3, §4

Row | Ki [nM] | Binder
47 | 299 | B6
48 | 131 | B7
49 | 378 | B8
50 | 124 | B3

The binders below were run against T9, cow serum albumin (cow, UniProt P02769 25-607) (assay: SPR (Biacore 8K), albumin immobilised, 25 C, steady-state affinity).
T9 construct: bought protein, amine-coupled to a CM5 chip; also called Cow SA; Bovine SA
Method: as §1, §2

Row | Kd [nM] | Binder
51 | 430 | B1
52 | 400 | B2
53 | 380 | B3
54 | 390 | B4
55 | 590 | B5

Each binder was assayed against T10, rabbit serum albumin (rabbit, UniProt P49065 25-608) (assay: SPR (Biacore 8K), albumin immobilised, 25 C).
T10 construct: bought protein, amine-coupled to a CM5 chip; also called Rabbit SA
Method: as §1, §2

Row | binding result | Binder
56 | no binding (tested: up to 1000 nM) | B1
57 | no binding (tested: up to 1000 nM) | B2
58 | no binding (tested: up to 1000 nM) | B3
59 | no binding (tested: up to 1000 nM) | B4
60 | no binding (tested: up to 1000 nM) | B5

What follows are binders tested against T8, human insulin receptor isoform B with … (assay: 125I-insulin competition SPA, hIR-B membranes, 0.1% HSA).
Method: as §3, §4

Row | Ki [nM] | Binder
61 | 239 | B6
62 | 89 | B7
63 | 447 | B8
64 | 38.1 | B3

Each binder was assayed against T7, human insulin receptor isoform A with … (assay: 125I-insulin competition SPA, hIR-A membranes, 0.001% NP-40).
Method: as §3, §4

Row | Ki [nM] | Binder
65 | 21.8 | B1
66 | 89.5 | B6
67 | 32.7 | B2
68 | 23.1 | B7
69 | 163 | B8
70 | 34 | B3
71 | 50.5 | B4
72 | 18.9 | B5
